# Measurements: patent US20250136662A1, “CD95 POLYPEPTIDES” (Deutsches Krebsforschungszentrum Stiftung des öffentlichen …, priority 2021, published 2025)
# How the values were obtained:
# Assay type in all cases: cell-based
# [1] = tested on: membrane lipid composition of cells; test: Lipidomics profiling of cells overexpressing CD95 variants (membrane lipid composition, UMAP clustering); conditions: overexpressed using lentiviral vectors two weeks prior to lipidomics profiling
# Source text: (§1) FIG. 5: Changes of lipid composition of membranes of cells in the presence of CD95 variants. A) Shown are average mol % concentrations of the indicated lipid classes; Abbreviations: WT: wildtype CD95; KO: CD95-knockout; sM: single mutant (R171E), dM: double mutant (R192E/K193E); tM: triple mutant (R171E/R192E/K193E); PC: phosphatidylcholines; PE: phosphatidylethanolamines, PS: phosphatidylserines, PI: phosphatidylinositoles, SM: sphingomyelins, CE: cholesteryl esters. “a”X relates to acyl-X, e.g. aPC is Acyl-phosphatidylcholines; “e”X relates to Ether-X or X containing one odd-chain fatty acyl species. B) Clustering of cells based on lipid profile changes, UMAP representation. C) average cell size as cell area of cells expressing variants of CD95.
# (§2) Indicated variants were overexpressed using lentiviral vectors two weeks prior to lipidomics profiling. […] Also, average cell size was decreased in cells expressing the triple mutant CD95, very similar to CD95 KO cells.
# [2] = tested on: cell cycle; test: Cell cycle assessment of cells overexpressing CD95 variants; conditions: overexpressed using lentiviral vectors two weeks prior to cell cycle assessment
# Source text: FIG. 6: Effect of CD95 variants on cell cycle. Shown is the percentage of cells in G2, S, or G1 phase, respectively, in cell overexpressing effector polypeptides. […] Abbreviations as in FIG. 5.
# Indicated variants were overexpressed using lentiviral vectors two weeks prior to cell cycle assessment.
# [3] = tested on: EGFR activation; test: Western blot pEGFR relative to total EGFR in T98G cells (Example 11); conditions: T98G cells serum starved, untreated or 100 ng/ml EGF-L for 10 mins
# Protocol: (§3) FIG. 10: Impact of CD95 mutants on activation of Akt and EGFR. […] Abbreviations as in FIG. 5.
# (§4) T98G cells were serum starved, control (Co) cells were left untreated otherwise stimulated with 100 ng/ml of EGF-L for 10 mins. Protein samples were analysed by western blot for pAKT (ser 473), pEGFR and pERK and the total amount of protein (pan antibody). Relative expression of the protein was calculated where phospho-proteins were normalized to their total proteins. […] TMD is CD95 with the indicated mutation(s). Protein lysates were also analysed for the level of cleaved and total caspase (FIG. 11).
# [4] = tested on: Akt phosphorylation (Ser 473); test: Western blot, fraction of phosphorylated Akt in cells overexpressing CD95 variants (Example 8); conditions: lentiviral overexpression two weeks prior, untreated or 20 ng/ml CD95-ligand or 100 ng/ml EGF-L for 10 minutes
# Protocol: (§5) FIG. 7: Effect of CD95 variants on cell signaling; shown is relative content in pAkt and pEGFR in cells transfected to overexpress effector polypeptides as indicated. Abbreviations as in FIG. 5.
# (§6) Indicated variants were overexpressed using lentiviral vectors two weeks prior to treatment. Cells were left untreated (co) or exposed to 20 ng/ml of CD95-ligand or 100 ng/ml of EGF-L for 10 minutes and the fraction phosphorylation among total Akt and EGFR measured by Western Blot.
# [5] = tested on: cell size; test: Average cell size as cell area of cells expressing CD95 variants; conditions: lentiviral overexpression, very similar to CD95 KO cells
# Source text: as §1, §2
# [6] = tested on: AKT activation; test: Western blot pAKT (ser 473) relative to total Akt in T98G cells (Example 11); conditions: T98G cells serum starved, untreated or 100 ng/ml EGF-L for 10 mins
# Protocol: as §3, §4
# [7] = tested on: Caspase 8 cleavage; test: Caspase-8 cleavage in protein lysates of T98G cells (apoptosis); conditions: upon EGFR stimulation
# Protocol: FIG. 11: Impact of CD95 mutants on apoptosis (caspase-8 cleavage). Protein lysates were analysed for the level of cleaved and total caspase-8. […] Bar show, in each case from left to right, relative expression of total caspase, p44, p43, and p18.
# as §4
# [8] = tested on: transferrin uptake; test: Transferrin uptake assay (endocytotic activity), flow cytometry; conditions: lentiviral overexpression two weeks prior, uptake after 10, 20 and 30 min
# Protocol: FIG. 8: Effect of CD95 variants on endocytotic activity of cells. Shown is the relative transferrin uptake of treated cells over time, i.e. after 10, 20, and 30 min. Abbreviations as in FIG. 5.
# Indicated variants were overexpressed using lentiviral vectors two weeks prior to assessment of the endocytotic activity by a transferrin uptake assay. Transferrin uptake was assessed after the indicated time points via flow cytometry.
# [9] = tested on: EGFR phosphorylation; test: Western blot, fraction of phosphorylated EGFR in cells overexpressing CD95 variants (Example 8); conditions: lentiviral overexpression two weeks prior, untreated or 20 ng/ml CD95-ligand or 100 ng/ml EGF-L for 10 minutes
# Protocol: as §5, §6
Molecule,changes in membrane lipid composition [1],clustering of cells based on lipid profile changes (UMAP) [1],"effect on cell cycle (cells in G2, S or G1 phase) [2]","effect on cell cycle (cells in G2, S or G1 phase) ([2]; listed as double mutation variant)",EGFR activation (pEGFR normalized to total) [3],"Akt phosphorylation (Ser 473), fraction among total Akt [4]",average cell size [5],level of AKT activation (pAKT ser 473 normalized to total) [6],"effect on cell cycle (cells in G2, S or G1 phase) ([2]; listed as triple mutation variant)",Caspase 8 cleavage [7],transferrin uptake [8],"EGFR phosphorylation, fraction among total EGFR [9]"
"double mutant: CD95 variant with R192E/K193E exchanges (cf. SEQ ID NO:31), expressed from lentiviral or AAV vector (protein, R192E/K193E double mutein (dM)) MLGIWTLLPLVLTSVARLSSKSVNAQVTDINSKGLELRKTVTTVETQNLEGLHHDGQFCHKPCPPGERKARDCTVNGDEPDCVPCQEGKEYTDKAHFSSKCRRCRLCDEGHGLEVEINCTRTQNTKCRCKPNFFCNSTVCEHCDPCTKCEHGIIKECTLTSNTKCKEEGSQSNLGWLCLLLLPIPLIVWVKEEEVQKTCRKHRKENQGSHESPTLNPETVAINLSDVDLSKYITTIAGVMTLSQVKGFVRKNGVNEAKIDEIKNDNVQDTAEQVQLLRNWHQLHGKKEAYDTLIKDLKKANLCTLAEKIQTIILKDITSDSENSNFRNEIQSLV",distinct changes in membrane lipid composition,clustered similarly,G1 arrest,strong G1 arrest,,,,,,,,
"triple mutant: CD95 variant with R171E/R192E/K193E exchanges (cf. SEQ ID NO:32), expressed from lentiviral or AAV vector (protein, R171E/R192E/K193E triple mutein (tM)) MLGIWTLLPLVLTSVARLSSKSVNAQVTDINSKGLELRKTVTTVETQNLEGLHHDGQFCHKPCPPGERKARDCTVNGDEPDCVPCQEGKEYTDKAHFSSKCRRCRLCDEGHGLEVEINCTRTQNTKCRCKPNFFCNSTVCEHCDPCTKCEHGIIKECTLTSNTKCKEEGSESNLGWLCLLLLPIPLIVWVKEEEVQKTCRKHRKENQGSHESPTLNPETVAINLSDVDLSKYITTIAGVMTLSQVKGFVRKNGVNEAKIDEIKNDNVQDTAEQVQLLRNWHQLHGKKEAYDTLIKDLKKANLCTLAEKIQTIILKDITSDSENSNFRNEIQSLV",distinct changes in membrane lipid composition,very similar clustering to the KO cells,G1 arrest,,increase in the EGFR activation,reduced Akt phosphorylation,decreased,decrease in the level of AKT activation,strong G1 arrest,noticeable Caspase 8 cleavage,significantly reduced transferrin uptake,increased EGFR phosphorylation
"single mutant: CD95 variant with R171E exchange (cf. SEQ ID NO:30), expressed from lentiviral or AAV vector (protein, R171E single mutein (sM)) MLGIWTLLPLVLTSVARLSSKSVNAQVTDINSKGLELRKTVTTVETQNLEGLHHDGQFCHKPCPPGERKARDCTVNGDEPDCVPCQEGKEYTDKAHFSSKCRRCRLCDEGHGLEVEINCTRTQNTKCRCKPNFFCNSTVCEHCDPCTKCEHGIIKECTLTSNTKCKEEGSESNLGWLCLLLLPIPLIVWVKRKEVQKTCRKHRKENQGSHESPTLNPETVAINLSDVDLSKYITTIAGVMTLSQVKGFVRKNGVNEAKIDEIKNDNVQDTAEQVQLLRNWHQLHGKKEAYDTLIKDLKKANLCTLAEKIQTIILKDITSDSENSNFRNEIQSLV",,clustered similarly,,,,,,,,,significantly reduced transferrin uptake,
